Results from the supplement of paper PMC10065799, “High-throughput profiling of sequence recognition by tyrosine kinases and SH2 domains using bacterial peptide display” (eLife, 2023).

The sequences below were run against EPHB1 (UniProt P54762) (assay: phosphorylation enrichment, bacterial display (enrichment ratio); higher = better substrate or ligand; peptides without Tyr show the background).
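Also: 11-residue human phosphosite peptides and single-mutation variants displayed on the E. coli surface, counted by deep sequencing, each peptide's frequency after selection divided by its frequency in the unselected input library; frequency after pTyr selection over input frequency; kinase dosed for 20-30% of maximal phosphorylation in three min.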

Sequence of EPHB1 (P54762 whole entry, looked up): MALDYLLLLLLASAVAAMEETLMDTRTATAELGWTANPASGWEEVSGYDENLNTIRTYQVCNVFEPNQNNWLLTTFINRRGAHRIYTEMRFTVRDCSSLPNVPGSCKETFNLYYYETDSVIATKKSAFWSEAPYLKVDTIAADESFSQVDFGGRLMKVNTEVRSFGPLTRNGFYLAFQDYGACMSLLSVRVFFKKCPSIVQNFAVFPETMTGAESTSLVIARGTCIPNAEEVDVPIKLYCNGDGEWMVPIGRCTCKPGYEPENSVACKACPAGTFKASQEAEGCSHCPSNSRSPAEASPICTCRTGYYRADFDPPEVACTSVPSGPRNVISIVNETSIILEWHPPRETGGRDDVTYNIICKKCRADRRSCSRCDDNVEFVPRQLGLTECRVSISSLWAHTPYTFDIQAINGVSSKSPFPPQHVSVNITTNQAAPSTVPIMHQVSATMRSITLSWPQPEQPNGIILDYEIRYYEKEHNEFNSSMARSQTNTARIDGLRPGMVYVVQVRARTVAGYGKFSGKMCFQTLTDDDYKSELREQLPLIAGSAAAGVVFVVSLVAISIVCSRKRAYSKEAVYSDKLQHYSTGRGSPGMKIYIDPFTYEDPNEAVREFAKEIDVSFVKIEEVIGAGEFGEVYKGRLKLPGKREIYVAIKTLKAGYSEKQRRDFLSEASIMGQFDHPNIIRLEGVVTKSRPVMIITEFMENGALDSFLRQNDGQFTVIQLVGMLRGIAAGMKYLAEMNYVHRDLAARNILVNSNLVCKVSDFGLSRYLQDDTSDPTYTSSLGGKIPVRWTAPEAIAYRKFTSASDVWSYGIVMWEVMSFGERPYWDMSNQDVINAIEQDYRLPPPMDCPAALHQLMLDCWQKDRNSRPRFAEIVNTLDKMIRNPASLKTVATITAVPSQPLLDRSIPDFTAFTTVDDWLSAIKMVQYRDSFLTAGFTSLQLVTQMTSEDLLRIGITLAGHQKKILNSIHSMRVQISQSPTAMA

First: PIDLYYLMDLS [ITGB2_Y131]
Second: THLAPYSDELR [APOA1_Y190]
The phosphorylation enrichment of the first is higher: 13.5 for the first, 0.51 for the second.

First: FFVVEYRNQKP [MUC17_Y4332_D4334N_YF]
Second: GCLSKYSGVFS [TUBGCP6_Y1624_V1621L]
The phosphorylation enrichment of the first is higher: 0.795 for the first, 0.52 for the second.

First: DRLASYLEKVR [KRT13_Y118]
Second: KLPDAYEPLIL [G6PD_Y437_R439P]
The phosphorylation enrichment of the first is lower: 0.372 for the first, 0.55 for the second.

Going from ESKKHYGYSLY [ANXA3_Y295_F291S] to ERWLKYFPIEQ [HS3ST5_Y244], the phosphorylation enrichment falls from 0.413 to 0.401.

Compared with DTSKMYIPHTD [EXPH5_Y782], MCITQYKRESQ [PRNP_Y218_E219K] is lower in phosphorylation enrichment: 0.487 for the first, 0.384 for the second.

First: NAPNSYGRRPS [CDKN2A_Y44_I49S]
Second: LDPDSYNKFEN [FOXC1_Y159_M161K]
The phosphorylation enrichment of the first is lower: 0.481 for the first, 0.758 for the second.

Compared with LNGDRYFKGIV [DCX_Y64_R59L], AAVNGYVFGGG [ECHS1_Y137_A138V] is lower in phosphorylation enrichment: 2.3 for the first, 0.419 for the second.

Going from SHNKYYMLVAH [MFSD8_Y134_R139H] to LYSGDYYRIQG [DDR2_Y740], the phosphorylation enrichment rises from 1.06 to 29.2.

Going from SLMGCYNLTFM [HS6ST3_Y323_V320M] to LRVHSYKSMQH [DRC7_Y516_P521H], the phosphorylation enrichment rises from 0.65 to 0.911.

Compared with PKDSAYVTWEP, IKAGAYDFPSP [CAMK2A_Y230] is lower in phosphorylation enrichment: 1.03 for the first, 0.362 for the second.

Compared with QLAPQYTFAQG [FLNA_Y1761_YF], VKANTYEKFWP [GATM_Y100_YF] is higher in phosphorylation enrichment: 0.344 for the first, 0.74 for the second.

Compared with LTERGYSFTTT [ACTB_Y198], LTVVIYVLVGR [EPHA3_Y561_I564V] is lower in phosphorylation enrichment: 0.472 for the first, 0.26 for the second.

First: RQQEVYLLFKQ [RARRES1_Y159_D158V_YF]
Second: RMQLPYDSTWE [PDGFRB_Y589_P584R]
The phosphorylation enrichment of the first is higher: 0.915 for the first, 0.76 for the second.

First: VCDSDYSASRW [LRP5_Y1552]
Second: FRIDHYLGKEM [G6PD_Y202_YF]
The phosphorylation enrichment of the first is higher: 0.691 for the first, 0.448 for the second.

First: CTTIHYNFMRN [TP53_Y234_C238R_YF]
Second: VPVDGYISGLL [PAK6_Y81_M76V]
The phosphorylation enrichment of the first is lower: 0.605 for the first, 0.75 for the second.

First: KLFRVYCDMNT [FGB_Y269_P265L_YF]
Second: ITGNGYYFRVF [MYBPC3_Y1135_I1131T]
The phosphorylation enrichment of the first is higher: 0.777 for the first, 0.561 for the second.

For HDHFGYRQSVT [CD55_Y245_R240H_YF], the phosphorylation enrichment was 0.65.

These sequences were tested on c-Src in the same assay as above.

First: PIDLYYLMDLS [ITGB2_Y131]
Second: THLAPYSDELR [APOA1_Y190]
The phosphorylation enrichment of the first is higher: 6.67 for the first, 0.434 for the second.

Going from FFVVEYRNQKP [MUC17_Y4332_D4334N_YF] to GCLSKYSGVFS [TUBGCP6_Y1624_V1621L], the phosphorylation enrichment falls from 0.608 to 0.509.

First: DRLASYLEKVR [KRT13_Y118]
Second: KLPDAYEPLIL [G6PD_Y437_R439P]
The phosphorylation enrichment of the first is lower: 0.412 for the first, 0.752 for the second.

First: ESKKHYGYSLY [ANXA3_Y295_F291S]
Second: ERWLKYFPIEQ [HS3ST5_Y244]
The phosphorylation enrichment of the first is higher: 0.541 for the first, 0.288 for the second.

First: DTSKMYIPHTD [EXPH5_Y782]
Second: MCITQYKRESQ [PRNP_Y218_E219K]
The phosphorylation enrichment of the first is lower: 0.371 for the first, 0.42 for the second.

First: NAPNSYGRRPS [CDKN2A_Y44_I49S]
Second: LDPDSYNKFEN [FOXC1_Y159_M161K]
The phosphorylation enrichment of the first is lower: 0.49 for the first, 1.02 for the second.

Going from LNGDRYFKGIV [DCX_Y64_R59L] to AAVNGYVFGGG [ECHS1_Y137_A138V], the phosphorylation enrichment falls from 0.626 to 0.461.

First: SHNKYYMLVAH [MFSD8_Y134_R139H]
Second: LYSGDYYRIQG [DDR2_Y740]
The phosphorylation enrichment of the first is lower: 0.418 for the first, 10.5 for the second.

Going from SLMGCYNLTFM [HS6ST3_Y323_V320M] to LRVHSYKSMQH [DRC7_Y516_P521H], the phosphorylation enrichment rises from 0.955 to 1.06.

Compared with PKDSAYVTWEP, IKAGAYDFPSP [CAMK2A_Y230] is lower in phosphorylation enrichment: 2.02 for the first, 0.485 for the second.

Going from QLAPQYTFAQG [FLNA_Y1761_YF] to VKANTYEKFWP [GATM_Y100_YF], the phosphorylation enrichment rises from 0.599 to 2.69.

First: LTERGYSFTTT [ACTB_Y198]
Second: LTVVIYVLVGR [EPHA3_Y561_I564V]
The phosphorylation enrichment of the first is higher: 0.46 for the first, 0.183 for the second.

Going from RQQEVYLLFKQ [RARRES1_Y159_D158V_YF] to RMQLPYDSTWE [PDGFRB_Y589_P584R], the phosphorylation enrichment rises from 0.788 to 0.996.

Compared with VCDSDYSASRW [LRP5_Y1552], FRIDHYLGKEM [G6PD_Y202_YF] is lower in phosphorylation enrichment: 0.518 for the first, 0.32 for the second.

Compared with CTTIHYNFMRN [TP53_Y234_C238R_YF], VPVDGYISGLL [PAK6_Y81_M76V] is higher in phosphorylation enrichment: 0.449 for the first, 0.657 for the second.

First: KLFRVYCDMNT [FGB_Y269_P265L_YF]
Second: ITGNGYYFRVF [MYBPC3_Y1135_I1131T]
The phosphorylation enrichment of the first is higher: 0.463 for the first, 0.301 for the second.

HDHFGYRQSVT [CD55_Y245_R240H_YF] was tested, and the phosphorylation enrichment was 0.725.
